B1: LTV1 (protein, UniProt Q96GA3 1-475, looked up)
Protein LTV1 homolog: MPHRKKKPFIEKKKAVSFHLVHRSQRDPLAADESAPQRVLLPTQKIDNEERRAEQRKYGVFFDDDYDYLQHLKEPSGPSELIPSSTFSAHNRREEKEETLVIPSTGIKLPSSVFASEFEEDVGLLNKAAPVSGPRLDFDPDIVAALDDDFDFDDPDNLLEDDFILQANKATGEEEGMDIQKSENEDDSEWEDVDDEKGDSNDDYDSAGLLSDEDCMSVPGKTHRAIADHLFWSEETKSRFTEYSMTSSVMRRNEQLTLHDERFEKFYEQYDDDEIGALDNAELEGSIQVDSNRLQEVLNDYYKEKAENCVKLNTLEPLEDQDLPMNELDESEEEEMITVVLEEAKEKWDCESICSTYSNLYNHPQLIKYQPKPKQIRISSKTGIPLNVLPKKGLTAKQTERIQMINGSDLPKVSTQPRSKNESKEDKRARKQAIKEERKERRVEKKANKLAFKLEKRRQEKELLNLKKNVEGLKL
B2: APRT (protein, UniProt P07741 2-180, looked up)
Adenine …: ADSELQLVEQRIRSFPDFPTPGVVFRDISPVLKDPASFRAAIGLLARHLKATHGGRIDYIAGLDSRGFLFGPSLAQELGLGCVLIRKRGKLPGPTLWASYSLEYGKAELEIQKDALEPGQRVVVVDDLLATGGTMNAACELLGRLQAEVLECVSLVELTSLKGREKLAPVPFFSLLQYE
B3: SUPV3L1 (protein, UniProt Q8IYB8 23-786, looked up)
ATP-dependent RNA helicase …: AICSALRPHFGPFPGVLGQVSVLATASSSASGGSKIPNTSLFVPLTVKPQGPSADGDVGAELTRPLDKNEVKKVLDKFYKRKEIQKLGADYGLDARLFHQAFISFRNYIMQSHSLDVDIHIVLNDICFGAAHADDLFPFFLRHAKQIFPVLDCKDDLRKISDLRIPPNWYPDARAMQRKIIFHSGPTNSGKTYHAIQKYFSAKSGVYCGPLKLLAHEIFEKSNAAGVPCDLVTGEERVTVQPNGKQASHVSCTVEMCSVTTPYEVAVIDEIQMIRDPARGWAWTRALLGLCAEEVHLCGEPAAIDLVMELMYTTGEEVEVRDYKRLTPISVLDHALESLDNLRPGDCIVCFSKNDIYSVSRQIEIRGLESAVIYGSLPPGTKLAQAKKFNDPNDPCKILVATDAIGMGLNLSIRRIIFYSLIKPSINEKGERELEPITTSQALQIAGRAGRFSSRFKEGEVTTMNHEDLSLLKEILKRPVDPIRAAGLHPTAEQIEMFAYHLPDATLSNLIDIFVDFSQVDGQYFVCNMDDFKFSAELIQHIPLSLRVRYVFCTAPINKKQPFVCSSLLQFARQYSRNEPLTFAWLRRYIKWPLLPPKNIKDLMDLEAVHDVLDLYLWLSYRFMDMFPDASLIRDLQKELDGIIQDGVHNITKLIKMSETHKLLNLEGFPSGSQSRLSGTLKSQARRTRGTKALGSKATEPPSPDAGELSLASRLVQQGLLTPDMLKQLEKEWMTQQTEHNKEKTESGTHPKGTRRKKKEPDSD
B4: FHOD1 (protein, UniProt Q9Y613 2-1164, looked up)
FH1/FH2 domain-containing …: AGGEDRGDGEPVSVVTVRVQYLEDTDPFACANFPEPRRAPTCSLDGALPLGAQIPAVHRLLGAPLKLEDCALQVSPSGYYLDTELSLEEQREMLEGFYEEISKGRKPTLILRTQLSVRVNAILEKLYSSSGPELRRSLFSLKQIFQEDKDLVPEFVHSEGLSCLIRVGAAADHNYQSYILRALGQLMLFVDGMLGVVAHSDTIQWLYTLCASLSRLVVKTALKLLLVFVEYSENNAPLFIRAVNSVASTTGAPPWANLVSILEEKNGADPELLVYTVTLINKTLAALPDQDSFYDVTDALEQQGMEALVQRHLGTAGTDVDLRTQLVLYENALKLEDGDIEEAPGAGGRRERRKPSSEEGKRSRRSLEGGGCPARAPEPGPTGPASPVGPTSSTGPALLTGPASSPVGPPSGLQASVNLFPTISVAPSADTSSERSIYKARFLENVAAAETEKQVALAQGRAETLAGAMPNEAGGHPDARQLWDSPETAPAARTPQSPAPCVLLRAQRSLAPEPKEPLIPASPKAEPIWELPTRAPRLSIGDLDFSDLGEDEDQDMLNVESVEAGKDIPAPSPPLPLLSGVPPPPPLPPPPPIKGPFPPPPPLPLAAPLPHSVPDSSALPTKRKTVKLFWRELKLAGGHGVSASRFGPCATLWASLDPVSVDTARLEHLFESRAKEVLPSKKAGEGRRTMTTVLDPKRSNAINIGLTTLPPVHVIKAALLNFDEFAVSKDGIEKLLTMMPTEEERQKIEEAQLANPDIPLGPAENFLMTLASIGGLAARLQLWAFKLDYDSMEREIAEPLFDLKVGMEQLVQNATFRCILATLLAVGNFLNGSQSSGFELSYLEKVSEVKDTVRRQSLLHHLCSLVLQTRPESSDLYSEIPALTRCAKVDFEQLTENLGQLERRSRAAEESLRSLAKHELAPALRARLTHFLDQCARRVAMLRIVHRRVCNRFHAFLLYLGYTPQAAREVRIMQFCHTLREFALEYRTCRERVLQQQQKQATYRERNKTRGRMITETEKFSGVAGEAPSNPSVPVAVSSGPGRGDADSHASMKSLLTSRPEDTTHNRRSRGMVQSSSPIMPTVGPSTASPEEPPGSSLPSDTSDEIMDLLVQSVTKSSPRALAARERKRSRGNRKSLRRTLKSGLGDDLVQALGLSKGPGLEV
B5: FIP1L1 (protein, UniProt Q6UN15 1-594, looked up)
Pre-mRNA 3'-end-processing …: MSAGEVERLVSELSGGTGGDEEEEWLYGGPWDVHVHSDLAKDLDENEVERPEEENASANPPSGIEDETAENGVPKPKVTETEDDSDSDSDDDEDDVHVTIGDIKTGAPQYGSYGTAPVNLNIKTGGRVYGTTGTKVKGVDLDAPGSINGVPLLEVDLDSFEDKPWRKPGADLSDYFNYGFNEDTWKAYCEKQKRIRMGLEVIPVTSTTNKITAEDCTMEVTPGAEIQDGRFNLFKVQQGRTGNSEKETALPSTKAEFTSPPSLFKTGLPPSRNSTSSQSQTSTASRKANSSVGKWQDRYGRAESPDLRRLPGAIDVIGQTITISRVEGRRRANENSNIQVLSERSATEVDNNFSKPPPFFPPGAPPTHLPPPPFLPPPPTVSTAPPLIPPPGFPPPPGAPPPSLIPTIESGHSSGYDSRSARAFPYGNVAFPHLPGSAPSWPSLVDTSKQWDYYARREKDRDRERDRDRERDRDRDRERERTRERERERDHSPTPSVFNSDEERYRYREYAERGYERHRASREKEERHRERRHREKEETRHKSSRSNSRRRHESEEGDSHRRHKHKKSKRSKEGKEAGSEPAPEQESTEATPAE
B6: FAM115A (protein, UniProt Q9Y4C2 1-921, looked up)
TRPM8 channel-associated …: MATPSAAFEALMNGVTSWDVPEDAVPCELLLIGEASFPVMVNDMGQVLIAASSYGRGRLVVVSHEDYLVEAQLTPFLLNAVGWLCSSPGAPIGVHPSLAPLAKILEGSGVDAKVEPEVKDSLGVYCIDAYNETMTEKLVKFMKCGGGLLIGGQAWDWANQGEDERVLFTFPGNLVTSVAGIYFTDNKGDTSFFKVSKKMPKIPVLVSCEDDLSDDREELLHGISELDISNSDCFPSQLLVHGALAFPLGLDSYHGCVIAAARYGRGRVVVTGHKVLFTVGKLGPFLLNAVRWLDGGRRGKVVVQTELRTLSGLLAVGGIDTSIEPNLTSDASVYCFEPVSEVGVKELQEFVAEGGGLFVGAQAWWWAFKNPGVSPLARFPGNLLLNPFGISITSQSLNPGPFRTPKAGIRTYHFRSTLAEFQVIMGRKRGNVEKGWLAKLGPDGAAFLQIPAEEIPAYMSVHRLLRKLLSRYRLPVATRENPVINDCCRGAMLSLATGLAHSGSDLSLLVPEIEDMYSSPYLRPSESPITVEVNCTNPGTRYCWMSTGLYIPGRQIIEVSLPEAAASADLKIQIGCHTDDLTRASKLFRGPLVINRCCLDKPTKSITCLWGGLLYIIVPQNSKLGSVPVTVKGAVHAPYYKLGETTLEEWKRRIQENPGPWGELATDNIILTVPTANLRTLENPEPLLRLWDEVMQAVARLGAEPFPLRLPQRIVADVQISVGWMHAGYPIMCHLESVQELINEKLIRTKGLWGPVHELGRNQQRQEWEFPPHTTEATCNLWCVYVHETVLGIPRSRANIALWPPVREKRVRIYLSKGPNVKNWNAWTALETYLQLQEAFGWEPFIRLFTEYRNQTNLPTENVDKMNLWVKMFSHQVQKNLAPFFEAWAWPIQKEVATSLAYLPEWKENIMKLYLLTQMPH

test system: Hsp90 complexes in K562 cell extract; assay: Nano-LC-MS/MS of PU-beads pull-downs; type: binding; conditions: protein identified in PU-beads pull-down of K562 cell extract, Prep 1; QSTAR-Elite QTof MS
Method: Protein cargo isolated from cell lysate with PU-beads or control-beads was subjected to proteomic analysis by nano liquid chromatography coupled to tandem mass spectrometry (nano LC-MS/MS). Initial protein identification was performed using the Mascot search engine, and was further evaluated using Scaffold Proteome Software (Tables 5a-d).
(§1) Lysates prepared as mentioned above were first pre-cleaned by incubation with control beads overnight at 4° C. […] Beads were washed with lysis buffer, proteins eluted by boiling in 2% SDS, separated on a denaturing gel and Coomassie stained according to manufacturer's procedure (Biorad). […] Analyses of the batch purified pools were done using a QSTAR-Elite hybrid quadrupole time-of-flight mass spectrometer (QTof MS) (AB/MDS Sciex), equipped with a nano spray ion source. Peptide mixtures (in 20 μL) are loaded onto a trapping guard column (0.3×5-mm PepMap C18 100 cartridge from LC Packings) using an Eksigent nano MDLC system (Eksigent Technologies, Inc) at a flow rate of 20 μL/min. […] Electrospray ionization (ESI) needle voltage was set at about 1800 V. The mass analyzer is operated in automatic, data-dependent MS/MS acquisition mode, with the threshold set to 10 counts per second of doubly or triply charged precursor ions selected for fragmentation scans. Survey scans of 0.25 sec are recorded from 400 to 1800 amu; up to 3 MS/MS scans are then collected sequentially for the selected precursor ions, recording from 100 to 1800 amu. The collision energy is automatically adjusted in accordance with the m/z value of the precursor ions selected for MS/MS. Selected precursor ions are excluded from repeated selection for 60 sec after the end of the corresponding fragmentation duty cycle. […] One missed tryptic cleavage site was allowed, precursor ion mass tolerance=0.4 Da fragment ion mass tolerance=0.4 Da, protein modifications were allowed for Met-oxide, Cys-acrylamide and N-terminal acetylation. MudPit scoring was typically applied with ‘require bold red’ activated, and using significance threshold score p<0.05. Unique peptide counts (or ‘spectral counts’) and percent sequence coverages for all identified proteins were exported to Scaffold Proteome Software (version 2_06_01, www.proteomesoftware.com) for further bioinformatic analysis (Table 5a). Using output from Mascot, Scaffold validates, organizes, and interprets mass spectrometry data, allowing more easily to manage large amounts of data, to compare samples, and to search for protein modifications.

| Molecule | Number of Assigned Spectra, K562 Prep 1 |
| --- | --- |
| B1 | 5 |
| B2 | 0 |
| B3 | 8 |
| B4 | 5 |
| B5 | 6 |
| B6 | 9 |

same assay, conditions: protein identified in PU-beads pull-down of K562 cell extract, Prep 2; QSTAR-Elite QTof MS

| Molecule | Number of Assigned Spectra, K562 Prep 2 |
| --- | --- |
| B1 | 6 |
| B2 | 0 |
| B3 | 3 |
| B4 | 2 |
| B5 | 3 |
| B6 | 1 |

test system: Hsp90 complexes in Mia-PaCa-2 cell extract; assay: Nano-LC-MS/MS of PU-beads pull-downs; type: binding, human; conditions: protein identified in PU-beads pull-down of Mia-PaCa-2 cell extract; QSTAR-Elite QTof MS
Method: as §1

| Molecule | Number of Assigned Spectra, Mia-Paca 2 |
| --- | --- |
| B1 | 0 |
| B2 | 6 |
| B3 | 0 |
| B4 | 0 |
| B5 | 0 |
| B6 | 0 |

Source: US20220074941A1, “HSP90 COMBINATION THERAPY” (Sloan-Kettering Institute for Cancer Research, priority 2011, published 2022)
